The values below come from US20130101617A1.

In assay [1] the target is CCR5 on CF2.CD4.CCR5 cells (Homo sapiens (Human)) (UniProt P51681).
For assay [2], the target named is CD4 on CF2.CD4.CCR5 cells (Homo sapiens (Human)) (UniProt P01730).

For the substance JR-FL SOS gp120/gp41 trimer, the infection of CF2.CD4.CCR5 target cells in assay [1] and in assay [2] was 100 % of mock each time.
